Reference: patent publication US7205387B2, “Recombinant polypeptide useful for neurotrophin receptor mediated gene delivery and as neurotrophin agonist” (Agency for Science, Technology and Research, priority 2003, dated 2007)

Assays:
[1] = system: COS7 (neurotrophin receptor negative) cells; assay: Gene delivery in vitro (pCAGluc luciferase reporter), COS7 cells; format: cell-based, African green monkey; settings: triple complexes with protamine, 0.1 μg pCAGluc/well
Procedure: (§1) A PC12 (rat pheochromocytoma) cell line was obtained from ATCC (American Type Culture Collection, Manassas, Va., USA) and cultured in RPMI-1640 medium supplemented with 10% fetal bovine serum (FBS) and 5% horse serum. PC12 cells are known to express TrkA and p75^NTR receptors. A COS7 (African green monkey kidney fibroblast) cell line was obtained from ATCC and cultured in Dulbecco's modified Eagle's medium (DMEM) supplemented with 10% fetal bovine serum, 50 U/ml penicillin, and 50 μg/ml streptomycin. The cells were maintained in a 37° C., 5% CO2, humidified incubator.
(§2) To determine the transfection efficiencies of our nucleic acid delivery systems, we employ a reporter plasmid, pCAGluc (a gift from Yoshiharu Matsuura, National Institute of Infectious Diseases, Tokyo, Japan), encoding firefly luciferase under the control of the composite promoter, CAG. CAG comprises the chicken β-actin promoter and the cytomegalovirus immediate early enhancer.
TrkA-targeting gene delivery complexes were tested for transfection efficiency in vitro in PC12 (TrkA and p75^NTR positive) cells and COS7 (neurotrophin receptor negative) cells. […]
One to two days after transfection, the cell culture medium was removed and the cells were rinsed in phosphate-buffered saline (PBS). […] The total protein concentration of each lysate was determined using the DC Protein assay (Bio-Rad, Hercules, Calif., USA). […]

[2] = system: PC12 (TrkA and p75^NTR positive) cells; assay: Gene delivery in vitro (pCAGluc luciferase reporter), PC12 cells; format: cell-based, rat
Procedure: as §1, §2
TrkA-targeting gene delivery complexes were tested for transfection efficiency in vitro in PC12 (TrkA and p75^NTR positive) cells and COS7 (neurotrophin receptor negative) cells. The cells were grown to 50–70% confluency in microplate wells (24-, 48-, or 96-well plates). The gene delivery complexes were prepared according to specifications presented for each example. Transfection was accomplished by replacing the serum-enriched medium with half the usual volume of reduced-serum medium, Opti-MEM (Invitrogen), containing the gene delivery complexes. Where specifically mentioned, 100 μM of chloroquine was also added to help the complexes escape from endosomes. After four hours of incubation, the cells were restored to the normal medium volume and serum concentration, either by topping up with medium containing twice the usual serum concentration (RPMI-1640 with 20% FBS and 10% horse serum for PC12) or by completely replacing the medium.
One to two days after transfection, the cell culture medium was removed and the cells were rinsed in phosphate-buffered saline (PBS). Enough Reporter Lysis Buffer (Promega, Wisconsin, Md., USA) to cover the bottom surface was added to each well (50 μl/well for 48-well plates). After one freeze-thaw cycle, the lysates were tested for luciferase activity using the Luciferase Assay System (Promega) and a single-tube luminometer (Berthold Lumat L B 9507, Bad Wildbad, Germany). The total protein concentration of each lysate was determined using the DC Protein assay (Bio-Rad, Hercules, Calif., USA). The results were expressed in relative light units (RLU) per milligram of total protein.

plasmid DNA = assay: DNA retardation assay (agarose gel electrophoresis); format: binding
Procedure: This assay qualitatively assesses the ability of a polypeptide or polycation to bind to DNA and thus to retard its migration (by decreasing its charge/mass ratio) through an agarose gel under electrophoresis. For a range of N/P ratios, polypeptide was added to 0.1 μg of plasmid DNA made up to 20 μl with either HEPES-buffered saline (HBS, 150 mM NaCl, 29 mM HEPES, pH 7.3) or 5% glucose. The mixtures were vortexed and incubated at room temperature for 30 minutes before being subjected to electrophoresis in a 0.8–1.0% Tris-borate-EDTA agarose gel stained with ethidium bromide for visualization under ultraviolet light.

[3] = triple complexes with protamine (2 μg per μg DNA), 0.1 μg pCAGluc/well

B1: DsbC-NL4-10K: chimeric recombinant protein: NL4-10K attached to the C-terminus of DsbC, an E. coli disulfide bond isomerase (protein)
chain: MKKGFMLFTLLAAFSGFAQADDAAIQQTLAKMGIKSSDIQPAPVAGMKTVLTNSGVLYITDDGKHIIQGPMYDVSGTAPVNVTNKMLLKQLNALEKEMIVYKAPQEKHVITVFTDITCGYCHKLHEQMADYNALGITVRYLAFPRQGLDSDAEKEMKAIWCAKDKNKAFDDVMAGKSVAPASCDVDIADHYALGVQLGVSGTPAVVLSNGTLVPGYQPPKEMKEFLDEHQKMTSGKGSTSGSGHHHHHHSAGLVPRGSCTTTHTFVKALTMDGKQAAWRFIRIDTACKKKKKKKKKK
modifications: DsbC-NL4-10K
notes: chimeric recombinant protein: NL4-10K attached to the C-terminus of DsbC, an E. coli disulfide bond isomerase
In the case of B1, the “effect on protamine-mediated gene delivery” value [1] is reported as “did not improve gene delivery”, the “effect of pre-treatment with free protein on DsbC-NL4-10K/DNA/PEI600 transfection” value ([2]; 30 minutes before transfection, compared to bovine serum albumin pre-treatment) is reported as “greatly reduced the transfection efficiency” and the “N/P ratio of maximum transfection efficiency” value [2, 3] is reported as 1 N/P ratio. The “protein/DNA ratio of maximum transfection efficiency” value [2, 3] was 0.3 nmol/µg and the “DNA binding / retardation of DNA migration (in words)” value (plasmid DNA) was “binds to DNA but cannot fully condense it”.
